Source: PMC9606172, “Recombinant acetylxylan esterase of Halalkalibacterium halodurans NAH-Egypt: molecular and biochemical study” (AMB Express, 2022)

Substrate: CC(=O)Oc1ccc([N+](=O)[O-])cc1
Assay: purified protein
Type: biochemical, Halalkalibacterium halodurans
Details: 30 mM Tris-HCl pH 8.0 (general assay), temperature for the Km not given

B1: AXE-HAS10 (Halalkalibacterium halodurans C-125) (protein)
chain: MPLIDMPLTELKEYMGRNPKPDDFTEYWDRALQEMRKVNPNVELIPSDFQTTYAECFHLYFTGVRGARIHAKYVRPRHTSGTHPAVIHFHGYTMNAGEWTGLLHYAALGYSVLAMDVRGQGGLSEDTGGVKGNTHSGHIIRGLDDNADQLLFRHVFLDTAQLANIVMNLPEVDEERVAVTGWSQGGALAIACAALEPKIKKVAPVYPFLSDYQRVWEMDLAEKAYDELQTYFRRFDPQHRREAEIFTKLGYIDIQHLAPLVKGEVLLAVGLMDTVCPPSTQFAMYNKLTTTKSIELYPDFAHEDLPGHRDRIFQFLSDL
notes: full-length ORF, 319 residues, no signal peptide; pET-28a(+) His6 fusion, 33 extra residues N-terminal and 9 C-terminal; E. coli BL21 (DE3) Rosetta; EC 3.1.1.72, CE7
Which Km does the source give for B1 here?
Its Km is 96 µM.

And the kcat?
Its kcat is 63.1 s⁻¹.

What about the kcat/Km of the same protein?
The kcat/Km was 657000 M⁻¹ s⁻¹.
